Measurements taken from US20160326540A1, “Methods and Compositions Employing a Sulfonylurea-Dependent Stabilization Domain” (PIONEER HI-BRED INTERNATIONAL, INC., priority 2013, published 2016).
Substitutions are numbered along the chain they refer to.

B1: L1-22: first round library L1 sulfonylurea repressor parental clone (protein)
chain: MGSRLDKSKVINSALELLNEVGIEGLTTRKLAQKLGVEQPTLYWHVKNKRALLDALAIEMMDRHHTHFCPLEGESWQDFLRNTAKSYRCALLSHRDGAKVCLGTAITEKQYETKENNLAFLCQQGFSLENALYARQAVRVFTLGCVLFDQEMQVAKEERETPTTDSMPPLLRQASELLDHQGAEPAFLFGLELIICGLEKQLKSESGS
modifications: Sulfonylurea responsive repressor
notes: first round library L1 sulfonylurea repressor parental clone
B2: L1-29: first round library L1 sulfonylurea repressor parental clone (protein)
chain: MGSRLDKSKVINSALELLNEVGIEGLTTRKLAQKLGVEQPTLYWHVKNKRALLDALAIEMMDRHQTHFCPLEGESWQDFLRNTAKSMRCALLSHRDGAKVWLGTRWTEKQYETPENMLAFLCQQGFSLENALYAWSAVCNFTLGCVLSDQERQVAKEERETPTTDSMPPLLRQAWELSDHQGAEPAFLFGLELIICGLEKQLKCESGS
modifications: Sulfonylurea responsive repressor
notes: as for B1
B3: L6-1B03 (protein)
chain: MGSRLDKSKVINSALELLNEVGIEGLTTRKLAQKLGVEQPTLYWHVKNKRALLDALAIEMMDRHATHICPLEGESWQDFLRNNAKSMRCALLSHRDGAKVCLGTRWTEQQYEAAENMLAFLCQQGFSLENALYAVSAVRVFTLGCVLFDQESQVAKEERETPTTASMPPLLRQAWELKDHQGAEPAFLFGLELIICGLEKQLKCESGS
modifications: Sulfonylurea responsive repressor
B4: L6-3H02 (protein)
chain: B3 chain with I68Y, N83T, Q110H, A113S, L171V, D179V
modifications: Sulfonylurea responsive repressor
B5: L6-5F05 (protein)
chain: B3 chain with M117Q, S152L
modifications: Sulfonylurea responsive repressor
B6: L6-2D07 (protein)
chain: B3 chain with A65Q, I68F, N83T, A113T, V135M, L171V
modifications: Sulfonylurea responsive repressor
B7: L6-5H06 (protein)
chain: B3 chain with A65Q, Q109K, A113T, S152L, L171V
modifications: Sulfonylurea responsive repressor
B8: L6-6F07 (protein)
chain: B3 chain with I68L, N83T, A113S, V135M
modifications: Sulfonylurea responsive repressor
B9: L6-2C09 (protein)
chain: B3 chain with A65Q, I68Y, N83T, Q110L, A113T, M117Q, V135M, S152L
modifications: Sulfonylurea responsive repressor
B10: L6-5H12 (protein)
chain: B3 chain with I68Y, Q109K, A113T, M117Q, V135M, S152L, L171V
modifications: Sulfonylurea responsive repressor
B11: L6-4D10: library L6 clone, parent of the L8 hits (protein)
chain: B3 chain with A65Q, I68Y, Q109K, A113S
modifications: Sulfonylurea responsive repressor
notes: library L6 clone, parent of the L8 hits
B12: L6-5G06 (protein)
chain: B3 chain with A65Q, I68Y, A113T, M117Q, S152L, A174G
modifications: Sulfonylurea responsive repressor
B13: L1-44: first round library L1 sulfonylurea repressor parental clone (protein)
chain: MGSRLDKSKVINSALELLNEVGIEGLTTRKLAQKLGVEQPTLYWHVKNKRALLDALAIEMLDRHATHFCPLEGESWQDFLRNNAKSYRCALLSHRDGAKVYLGTAVTEKQYETAENQLAFLCQQGFSLENALYAVKAVAGFTLGCVLWDQESQVAKEERETPTTASMPPLLRQAVELADHQGAEPAFLFGLELIICGLEKQLKCESGS
modifications: Sulfonylurea responsive repressor
notes: as for B1
B14: L8-3F01: library L8 chlorsulfuron repressor hit, parent for saturation mutagenesis and CsL3 (protein)
chain: MARLDKSKVINSALELLNEVGIEGLTTRKLAQKLGVEQPTLYWHVKNKRALLDALAIEMMDRHQTHYLPLEGESWQDFLRNNAKSCRRALLSHRDGAKVCLGTRWTEQQYETAENMLAFLTQQGFSLENALYAVSAVRVFTLGAVLFDQESQVAKEERETPTTDSMPPLLRQAWELKDHQGAEPAFLFGLELIIAGLEKQLKRESGS
modifications: Sulfonylurea responsive repressor
notes: library L8 chlorsulfuron repressor hit, parent for saturation mutagenesis and CsL3

Key:
[1] = test system: β-gal background activity; experiment: First and second round library screening (L1, L2) for induction by sulfonylurea ligands; assay type: cell-based; conditions: initial screen, library L1, data not shown
Excerpt: The original library was designed to thifensulfuron, but once induction activity was established with other SU compounds having potentially better soil and in planta stability properties than the original ligand, the evolution process was re-directed towards these alternative ligands. Of particular interest were herbicides metsulfuron, sulfometuron, ethametsulfuron and chlorsulfuron. For this objective, parental clones L1-9, -22, -29 and -44 were chosen for further shuffling. Clone L1-9 has strong activity on both ethametsulfuron and chlorsulfuron; clone L1-22 has strong sulfometuron activity; clone L1-29 has moderate metsulfuron activity; and clone L1-44 has moderate activity on metsulfuron, ethametsulfuron and chlorsulfuron. (Data not shown.). No clones found in the initial screen were exceptionally reactive to metsulfuron. These four clones were also chosen due to their relatively strong repressor activity, showing low β-gal background activity without inducer. Strong repressor activity is important for establishing a system which is both highly sensitive to the presence of inducer, and tightly off in the absence of inducer.
Based on the sequence information from parental clones L1-9, -22, -29 and -44, two second round libraries were designed, constructed and screened. The first library, L2, consisted of a ‘family’ shuffle whereby the amino acid diversity between the selected parental clones was varied using synthetic assembly of oligonucleotides to find clones improved in responsiveness to any of the four new target ligands.
The L2 oligonucleotides were assembled, cloned and screened as per the protocol described for library L1 except that each ligand was tested at 2 ppm to increase the stringency of the assay, which is a 10-fold reduction from 1st round library screening concentration.

E. coli KM3 = assay type: cell-based; conditions: for Control 84 hr (colony color intensity): M9 assay plates, no inducer (background activity), 84 hr at 30° C., ImageJ colony color intensity
Method: Library L6 was assembled, rescued, ligated into pVER7314, transformed into E. coli KM3 and plated out onto LB carbenicillin/kanamycin, and carbenicillin only control media as before. Library plates were then picked into 42 384-well microtiter plates (˜16,000 clones) containing 60 μl LB carbenicillin (Cb) broth per well. After overnight growth at 37° C. the cultures were stamped onto M9 assay plates containing no inducer, 0.2 ppm, and 2.0 ppm chlorsulfuron as test inducer. Following incubation at 30° C. for ˜48 hrs, putative hits responding to chlorsulfuron treatment as determined by increased blue colony color were re-arrayed into six 96-well microtiter plates and used to stamp a fresh set of M9 assay plates to confirm the above results. For a more detailed analysis of the relative induction by chlorsulfuron, digital photographs were taken of the plates after various time points of incubation at 30° C. and colony color intensity measured using the digital image analysis freeware program ImageJ (Rasband, US National Institutes of Health, Bethesda, Md., USA, rsb.info.nih.gov/ij/, 1997-2007). […] From this analysis sequence-activity relationships were derived. […] Briefly, C at position 100, and Q at positions 108 and 109 strongly correlated with activation, while R at position 138, L at position 170, and A or G at position 173 were highly preferred in clones with the lowest background activity. […] This information will aid in the design of further libraries to improve responsiveness to chlorsulfuron. […]
Library CsL3 construction and screening: Based on the IVM results the top performing residue substitutions were incorporated into library CsL3 (Table 14). The library was assembled with the oligonucleotides shown below in Table 19. The first and last primers in each set were used as rescue primers. To enable purification of hit proteins, a 6×His-tag between was added to the C-terminus of the ligand binding domain of each clone during the assembly and rescue process. The library was then inserted into pVER7334 SacI/AscI, transformed into E. coli assay strain Km3 and selected on LB+40 ug/ml Kanamycin and 50 ug/ml Carbenicillin. […] Colony color was then assessed at 24 and 96 hrs of incubation at 37° C. […] Also, while the C86M substitution was less frequent in the overall hit population it occurred in all top 26 clones.
Creating novel diversity through random mutagenesis.
Construction and screening of library CsL4.2.

Row | Molecule | Control 84 hr (colony color intensity) (E. coli KM3) | other results
1 | B1 |  | sulfometuron activity [1]: strong
2 | B2 |  | metsulfuron activity [1]: moderate
3 | B3 | 6.6 | 
4 | B4 | 5.6 | 
5 | B5 | 5.4 | 
6 | B6 | 5.8 | 
7 | B7 | 5.1 | 
8 | B8 | 5.1 | 
9 | B9 | 5.2 | 
10 | B10 | 5.7 | 
11 | B11 | 5.0 | 
12 | B12 | 7.0 | 
13 | B13 |  | activity on chlorsulfuron [1]: moderate; activity on ethametsulfuron [1]: moderate; metsulfuron activity [1]: moderate
14 | B14 |  | F.IND = fold induction (IND/REP) (Colony Assay Results) (E. coli KM3; CsL3 hits, 20 ppb Cs vs no inducer): 2.5
